Measured values from publication PMC4072508, “Genome-Wide Prediction and Validation of Peptides That Bind Human Prosurvival Bcl-2 Proteins” (PLoS Computational Biology, 2014).

T1: Mcl-1, Q07820
T1 chain: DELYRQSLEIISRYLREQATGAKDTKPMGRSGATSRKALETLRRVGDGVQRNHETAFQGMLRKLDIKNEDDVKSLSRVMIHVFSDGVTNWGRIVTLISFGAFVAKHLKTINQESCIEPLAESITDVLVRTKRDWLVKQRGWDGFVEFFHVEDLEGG

B1: MAPKAPK2 (peptide)
chain: AFTEREASEIDKSIGEAIQYLHSINI
B2: ATAD2 (peptide)
chain: SQGDKRVAFFMRKGLDCLSKWVGESE
B3: ADCY8 (peptide)
chain: RLAHEHHCLRIKILGDCYYCVSGLPE
B4: TRO (peptide)
chain: SALETQVAAAVQALLDDYLAQLSLEP
B5: TRO (peptide)
chain: SALETQVAAADQALADDYLAQLSLEP
B6: GNB5 (peptide)
chain: SVRYYPSGDAFASGLDDATCRLYDLR
B7: HIRA (peptide)
chain: GLTWDPVGKYIASQLDDRSLKVWRTL
B8: BIRC6 (peptide)
chain: CGDLASLSIDDWTLGEEVDGRRLVVA
B9: BAT3 (peptide)
chain: QRLINLVGESLRLLLNTFVALSDLRC
B10: SOS1 (peptide)
chain: QLSKPGAALYLQSIGEGFKEAVQYVL
B11: FAM115A (peptide)
chain: RGAMLSLATGLAHSLSDLSLLVPEIE
B12: GLOD4 (peptide)
chain: VILADPDGHEICFVLDEAFRELSKMD
B13: PRPSAP1 (peptide)
chain: ITVVGDVGGRIAIILDDIIDDVESFV
B14: HAP1 (peptide)
chain: VEQFSEASQQMAELLEVLVLRLENYE
B15: ADCY10 (peptide)
chain: EKVLIFGGDILKFALDALLALWRVER
B16: HAP1 (peptide)
chain: VEQFSEASQQDAELSEVLVLRLENYE
B17: KIF13A (peptide)
chain: RIEMWISILEDNELGEYAAVELHQAK
B18: DDX7 (peptide)
chain: GLFSATSGVDLKYVLDTFGQEVRPVS
B19: PRPSAP1 (peptide)
chain: ITVVGDVGGRIAIIVDDIIDDVESFV
B20: POLQ (peptide)
chain: DLLGMVVVDEDHMLGDSHRGYLLELL
B21: SPOCK2 (peptide)
chain: GKPETCTGQDDADLGDRLRDWFQLLH
B22: MSH3 (peptide)
chain: AVLCVECGYKYRFFGEDAEIAARELN
B23: TIGD7 (peptide)
chain: SAGVPVRGVELQAALERFARCFGRTD
B24: SEH1L (peptide)
chain: RVSWNITGTVDASSGDDGCVRLWKAN
B25: CRTC1 (peptide)
chain: PSLSKELTSSLAGVLDVSFDSDSQFP
B26: HDLBP (peptide)
chain: RHFVIRRGQVDREIAEEYGGVMVSFP
B27: PRKDC (peptide)
chain: SHALICISHWDLGIGDRHLNNFMVAM
B28: DBC1 (peptide)
chain: ISDVQVFGYSDRFNADLLRSAVQQVN
B29: MLLT4 (peptide)
chain: KNIAGALAFWMANALELLNFIKQDRD
B30: CLTCL1 (peptide)
chain: FRFAQLCGLHIVIHADELEELMCYYQ
B31: STRN (peptide)
chain: LGLGELAGLTDANEADSLTYDIANNK
B32: SORT1 (peptide)
chain: VFDDLRGSVSLSWVLDSTGVILVLTT
B33: SCAP (peptide)
chain: IQQDLGCGASDGVISDNLLVTGGQGC
B34: SLC40A1 (peptide)
chain: AKFLLYLGHSLSTWLDRMWHFAVSVF
B35: NEDD9 (peptide)
chain: SKFVILSAHKLVFILDTLTRQVTAQD
B36: DIRC2 (peptide)
chain: IVGGCVVGIADARFADFIRGMLKLIL
B37: SCAP (peptide)
chain: IQQDLGCGASLGVILDNLLVTGGQGC
B38: CPS1 (peptide)
chain: LRCEMASTGEVACFLEGIHTAFLKAM
B39: TEP1 (peptide)
chain: AALFLHAGCQDLTAGEDGKVQVWSGS
B40: DIRC2 (peptide)
chain: IVGGCVVGIAMARFADFIRGMLKLIL
B41: ATP2B1 (peptide)
chain: ALKKADVGFAMGIALTDVAKEASDII

Molecular target: Bcl-xL, Q07817
Assay: peptide SPOT array, c-Myc-tagged receptor at 1 uM or 100 nM, anti-c-Myc-Cy3

Sequence of Bcl-xL, Q07817 (Q07817 1-209): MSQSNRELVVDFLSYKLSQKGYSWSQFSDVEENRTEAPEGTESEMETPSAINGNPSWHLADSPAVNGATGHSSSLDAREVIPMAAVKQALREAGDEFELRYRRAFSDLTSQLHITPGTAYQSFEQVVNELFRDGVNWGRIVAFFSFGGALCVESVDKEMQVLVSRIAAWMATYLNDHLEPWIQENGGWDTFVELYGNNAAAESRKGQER

In order of rising SPOT signal as a fraction of Bim BH3's signal on the same receptor and array:
1. B5  0.01
2. B21  0.01
3. B22  0.01
4. B31  0.01
5. B32  0.01
6. B33  0.01
7. B37  0.01
8. B1  0.02
9. B4  0.02
10. B6  0.02
11. B8  0.02
12. B10  0.02
13. B12  0.02
14. B13  0.02
15. B14  0.02
16. B16  0.02
17. B18  0.02
18. B19  0.02
19. B20  0.02
20. B25  0.02
21. B26  0.02
22. B27  0.02
23. B28  0.02
24. B30  0.02
25. B38  0.02
26. B39  0.02
27. B41  0.02
28. B3  0.03
29. B17  0.03
30. B29  0.03
31. B15  0.04
32. B23  0.04
33. B2  0.06
34. B11  0.06
35. B35  0.06
36. B24  0.07
37. B9  0.08
38. B34  0.12
39. B36  0.15
40. B40  0.25
41. B7  0.86

Molecular target: T1, Mcl-1, Q07820
Assay: as above

In order of falling SPOT signal as a fraction of Bim BH3's signal on the same receptor and array:
1. B7  0.55
2. B40  0.18
3. B36  0.14
4. B34  0.07
5. B11  0.05
6. B23  0.05
7. B35  0.04
8. B2  0.03
9. B9  0.03
10. B15  0.03
11. B24  0.03
12. B26  0.03
13. B38  0.03
14. B1  0.02
15. B3  0.02
16. B4  0.02
17. B6  0.02
18. B8  0.02
19. B10  0.02
20. B12  0.02
21. B13  0.02
22. B14  0.02
23. B16  0.02
24. B17  0.02
25. B18  0.02
26. B19  0.02
27. B20  0.02
28. B27  0.02
29. B28  0.02
30. B29  0.02
31. B30  0.02
32. B32  0.02
33. B39  0.02
34. B5  0.01
35. B21  0.01
36. B22  0.01
37. B25  0.01
38. B31  0.01
39. B33  0.01
40. B37  0.01
41. B41  0.01
